From PMC4250520, “Calcium-induced conformational changes of the regulatory domain of human mitochondrial aspartate/glutamate carriers” (Nature Communications, 2014) come the findings set out here.

Series [1] concerns the molecule itself. Briefly: SEC-MALLS; Superdex 200 10/300 GL; 20 mM Hepes pH 7.5, 150 mM NaCl, 5 mM CaCl2; two-detector method.
Series [2] deals with the molecule itself. Briefly: SEC-MALLS; Superose 6 10/300 GL; 20 mM Hepes pH 8.0, 150 mM NaCl, 0.002% (w/v) LMNG, 0.004 mg/ml TOCL; protein-conjugate (three-detector) method.
In series [3] the target is T1, N-terminal domain of citrin (human, UniProt Q9UJS0 2-319).
T1 construct: human citrin N-terminal domain, residues 2-319; In the crystal structure it is joined to the C-terminal domain on one chain; The N-terminal domain of citrin could not be expressed on its own; also called EF-hands 1-8; source: Lactococcus lactis NZ9000, as part of the purified fusion; set free by cleavage with MBP-TEV
T1 sequence (looked up): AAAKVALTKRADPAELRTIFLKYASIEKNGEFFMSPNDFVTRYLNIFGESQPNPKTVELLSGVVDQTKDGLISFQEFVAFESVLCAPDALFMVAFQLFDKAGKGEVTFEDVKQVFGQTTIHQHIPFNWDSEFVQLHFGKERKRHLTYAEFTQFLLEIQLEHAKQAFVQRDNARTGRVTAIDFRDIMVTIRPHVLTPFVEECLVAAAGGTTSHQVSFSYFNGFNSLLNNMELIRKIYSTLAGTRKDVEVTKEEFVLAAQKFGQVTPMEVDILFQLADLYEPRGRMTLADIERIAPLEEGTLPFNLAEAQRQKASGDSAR
Briefly: SEC; fusion cleaved with MBP-TEV overnight, then Superose 12 10/30 HR; 20 mM Hepes pH 7.5, 150 mM NaCl, 10 mM EGTA (sample E, supplemented with 10 mM EGTA and 10 mM EDTA); peak fractions on Tris-tricine gels. The following applies: both partners purified. A general note: Size exclusion chromatography separates by hydrodynamic size, large species first.

B1: N- and C-terminal domain fusion of citrin (domain or fragment, human)
chain: AAAKVALTKRADPAELRTIFLKYASIEKNGEFFMSPNDFVTRYLNIFGESQPNPKTVELLSGVVDQTKDGLISFQEFVAFESVLCAPDALFMVAFQLFDKAGKGEVTFEDVKQVFGQTTIHQHIPFNWDSEFVQLHFGKERKRHLTYAEFTQFLLEIQLEHAKQAFVQRDNARTGRVTAIDFRDIMVTIRPHVLTPFVEECLVAAAGGTTSHQVSFSYFNGFNSLLNNMELIRKIYSTLAGTRKDVEVTKEEFVLAAQKFGQVTPMEVDILFQLADLYEPRGRMTLADIERIAPLEEGTLPFNLAEAQRQKASGDSARENLYFQGGVKPMGSEPVPKSRINLPAPNPDHVGGYKLAVATFAGIENKFGLYLPLFKPSVSTSKAIGGGP
notes: human citrin N-terminal domain, residues 2-319; TEV protease cleavage site that links the two domains in place of the carrier domain; human citrin C-terminal domain, residues 613-675; A Factor-Xa cleavage site follows the octa-histidine tag; no tag removal step is described in the purification of this fusion; also called citrin N- and C-terminal fusion protein; regulatory domain of citrin; …
For orientation: stoichiometry N means the number of molecules, sites or subunits per partner or assembly. Take B1: the “stoichiometry N” value in series [1] was found to be 2.

B2: citrin (mitochondrial aspartate/glutamate carrier isoform 2), full-length (natural protein, human, UniProt Q9UJS0 1-675, looked up)
chain: MAAAKVALTKRADPAELRTIFLKYASIEKNGEFFMSPNDFVTRYLNIFGESQPNPKTVELLSGVVDQTKDGLISFQEFVAFESVLCAPDALFMVAFQLFDKAGKGEVTFEDVKQVFGQTTIHQHIPFNWDSEFVQLHFGKERKRHLTYAEFTQFLLEIQLEHAKQAFVQRDNARTGRVTAIDFRDIMVTIRPHVLTPFVEECLVAAAGGTTSHQVSFSYFNGFNSLLNNMELIRKIYSTLAGTRKDVEVTKEEFVLAAQKFGQVTPMEVDILFQLADLYEPRGRMTLADIERIAPLEEGTLPFNLAEAQRQKASGDSARPVLLQVAESAYRFGLGSVAGAVGATAVYPIDLVKTRMQNQRSTGSFVGELMYKNSFDCFKKVLRYEGFFGLYRGLLPQLLGVAPEKAIKLTVNDFVRDKFMHKDGSVPLAAEILAGGCAGGSQVIFTNPLEIVKIRLQVAGEITTGPRVSALSVVRDLGFFGIYKGAKACFLRDIPFSAIYFPCYAHVKASFANEDGQVSPGSLLLAGAIAGMPAASLVTPADVIKTRLQVAARAGQTTYSGVIDCFRKILREEGPKALWKGAGARVFRSSPQFGVTLLTYELLQRWFYIDFGGVKPMGSEPVPKSRINLPAPNPDHVGGYKLAVATFAGIENKFGLYLPLFKPSVSTSKAIGGGP
notes: also called SLC25A13; AGC2; source: purified in lauryl maltose neopentyl glycol
On to B2, for which, in series [2], the “stoichiometry N” value is 2.

B3: C-terminal domain of citrin (domain or fragment, human, UniProt Q9UJS0 613-675, looked up)
chain: GVKPMGSEPVPKSRINLPAPNPDHVGGYKLAVATFAGIENKFGLYLPLFKPSVSTSKAIGGGP
notes: human citrin C-terminal domain, residues 613-675; residues 632-658 are seen in the structure; In the crystal structure it is joined to the N-terminal domain on one chain; also called C-terminal helix; source: Lactococcus lactis NZ9000, as part of the purified fusion; set free by cleavage with MBP-TEV
With B3, the binding result in series [3] is listed as “binds”.

B4: N- and C-terminal domain fusion of aralar (domain or fragment, human)
chain: AVKVQTTKRGDPHELRNIFLQYASTEVDGERYMTPEDFVQRYLGLYNDPNSNPKIVQLLAGVADQTKDGLISYQEFLAFESVLCAPDSMFIVAFQLFDKSGNGEVTFENVKEIFGQTIIHHHIPFNWDCEFIRLHFGHNRKKHLNYTEFTQFLQELQLEHARQAFALKDKSKSGMISGLDFSDIMVTIRSHMLTPFVEENLVSAAGGSISHQVSFSYFNAFNSLLNNMELVRKIYSTLAGTRKDVEVTKEEFAQSAIRYGQVTPLEIDILYQLADLYNASGRLTLADIERIAPLAEGALPYNLAELQRQQSPGLGRENLYFQGGLKPAGSEPTPKSRIADLPPANPDHIGGYRLATATFAGIENKFGLYLPKFKSPSVAVVQPKAAVAATQ
notes: human aralar N-terminal domain, residues 2-317; TEV protease cleavage site that links the two domains in place of the carrier domain; human aralar C-terminal domain, residues 611-678; also called aralar fusion; source: gene codon-optimized for expression in L. lactis; expressed, purified
Consider B4, for which, in series [1], the “stoichiometry N” value worked out at 2.

B5: N-terminal domain of aralar (domain or fragment, human, UniProt O75746 2-311, looked up)
chain: AVKVQTTKRGDPHELRNIFLQYASTEVDGERYMTPEDFVQRYLGLYNDPNSNPKIVQLLAGVADQTKDGLISYQEFLAFESVLCAPDSMFIVAFQLFDKSGNGEVTFENVKEIFGQTIIHHHIPFNWDCEFIRLHFGHNRKKHLNYTEFTQFLQELQLEHARQAFALKDKSKSGMISGLDFSDIMVTIRSHMLTPFVEENLVSAAGGSISHQVSFSYFNAFNSLLNNMELVRKIYSTLAGTRKDVEVTKEEFAQSAIRYGQVTPLEIDILYQLADLYNASGRLTLADIERIAPLAEGALPYNLAELQRQQ
notes: human aralar N-terminal domain, residues 2-311; Tag removed with Factor Xa; also called aralar N-terminal domain; regulatory domain of aralar; source: Lactococcus lactis NZ9000, purified (Nickel Sepharose, Factor Xa, SEC); not shown: His8, N-terminal, cleaved
As to B5, in series [1], the “stoichiometry N” value is 2.
